Source: paper PMC7572726
Values belong to the substance of their own block, whether it stands above or below them.

How the values were obtained:
[1] = target: Capnocytophaga granulosa STING (Capnocytophaga granulosa); assay: crystal structure
[2] = target: SfSTING with the TIR domain removed (ΔTIR) (Sphingobacterium faecium); assay: SEC-MALS
[3] = target: TIR-only construct of SfSTING with the cyclic dinucleotide binding domain removed (ΔCDN) (Sphingobacterium faecium); assay: SEC-MALS

Substance: Capnocytophaga granulosa STING (from UniProt A0A381HAP5 151-314) (domain or fragment)
stoichiometry N [1]: 2

stoichiometry N [2]: 2
Substance: SfSTING with the TIR domain removed (ΔTIR) (domain or fragment)

stoichiometry N [3]: 2
Substance: TIR-only construct of SfSTING with the cyclic dinucleotide binding domain removed (ΔCDN) (domain or fragment)
